Experimental data published in patent US20240400675A1 (published 2024).

T1: human CLDN6 (UniProt P56747 1-220)
T1 chain: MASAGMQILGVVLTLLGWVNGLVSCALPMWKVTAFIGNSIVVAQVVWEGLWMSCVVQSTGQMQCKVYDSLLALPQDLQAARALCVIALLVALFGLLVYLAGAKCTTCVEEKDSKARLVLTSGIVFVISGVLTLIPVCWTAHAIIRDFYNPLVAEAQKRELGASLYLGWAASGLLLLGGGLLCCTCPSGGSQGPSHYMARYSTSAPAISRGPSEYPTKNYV

T2: human CLDN9 (UniProt O95484 1-217)
T2 chain: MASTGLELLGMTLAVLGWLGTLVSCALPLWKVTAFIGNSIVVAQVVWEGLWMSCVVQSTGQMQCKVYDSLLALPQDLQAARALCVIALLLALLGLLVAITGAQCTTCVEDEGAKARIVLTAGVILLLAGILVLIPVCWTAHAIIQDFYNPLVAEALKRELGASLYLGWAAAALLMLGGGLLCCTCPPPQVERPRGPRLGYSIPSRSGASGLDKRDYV

B1: XENP35070 H2_L1.27 (antibody, V domains shown)
VH: EVQLVQSGAEVKKPGESLRISCKTSGYTFTEYTMHWVRQMPGKSLEWMGGIDPNNGNTHYNQKFQGHVTISVDKSISTAYLQWSSLKASDTAMYYCARIYYFGRLYFDFWGAGTLVTVSS
VL: DIQMTQSPSSLSASVGDRVTITCQASEDIYNRLAWYQQKPGKVPKLLISGATSLESGVPSRFSGSGSGKDYTFTISSLQPEDIATYYCQQYWSSPLTFGGGTKVEIKR
B2: XENP35088 H1.4_L1 (antibody, V domains shown)
VH: QVQLVQSGAEVKKPGASVKVSCKTSGYTFTEYTMHWVRQAPGQSLEWMGGIDANNGNTHYNQKFQGRVTITVDKSASTAYMELSSLRSEDTAVYYCARIYYFGRLYFDFWGAGTLVTVSS
VL: DIQMTQSPSSLSASVGDRVTITCQASEDIYNRLAWYQQKPGKVPKLLISGATSLETGVPSRFSGSGSGKDYTFTISSLQPEDIATYYCQQYWSSPLTFGGGTKVEIKR
B3: XENP35093 (having C6-30 H1.9_L1) (antibody, V domains shown)
VH: QVQLVQSGAEVKKPGASVKVSCKTSGYTFTEYTMHWVRQAPGQSLEWMGGIDPNNANTHYNQKFQGRVTITVDKSASTAYMELSSLRSEDTAVYYCARIYYFGRLYFDFWGAGTLVTVSS
VL: DIQMTQSPSSLSASVGDRVTITCQASEDIYNRLAWYQQKPGKVPKLLISGATSLETGVPSRFSGSGSGKDYTFTISSLQPEDIATYYCQQYWSSPLTFGGGTKVEIKR
B4: XENP35100 H2.7_L1 (antibody, V domains shown)
VH: EVQLVQSGAEVKKPGESLRISCKTSGYTFTEYTMHWVRQMPGKSLEWMGGIDPNQGNTHYNQKFQGHVTISVDKSISTAYLQWSSLKASDTAMYYCARIYYFGRLYFDFWGAGTLVTVSS
VL: DIQMTQSPSSLSASVGDRVTITCQASEDIYNRLAWYQQKPGKVPKLLISGATSLETGVPSRFSGSGSGKDYTFTISSLQPEDIATYYCQQYWSSPLTFGGGTKVEIKR
B5: XENP35044 H2_L1.1 (antibody, V domains shown)
VH: EVQLVQSGAEVKKPGESLRISCKTSGYTFTEYTMHWVRQMPGKSLEWMGGIDPNNGNTHYNQKFQGHVTISVDKSISTAYLQWSSLKASDTAMYYCARIYYFGRLYFDFWGAGTLVTVSS
VL: DIQMTQSPSSLSASVGDRVTITCQASQDIYNRLAWYQQKPGKVPKLLISGATSLETGVPSRFSGSGSGKDYTFTISSLQPEDIATYYCQQYWSSPLTFGGGTKVEIKR
B6: XENP35066 H2_L1.23 (antibody, V domains shown)
VH: EVQLVQSGAEVKKPGESLRISCKTSGYTFTEYTMHWVRQMPGKSLEWMGGIDPNNGNTHYNQKFQGHVTISVDKSISTAYLQWSSLKASDTAMYYCARIYYFGRLYFDFWGAGTLVTVSS
VL: DIQMTQSPSSLSASVGDRVTITCQASEDIYNRLAWYQQKPGKVPKLLISGATSRETGVPSRFSGSGSGKDYTFTISSLQPEDIATYYCQQYWSSPLTFGGGTKVEIKR
B7: XENP35091 H1.7_L1 (antibody, V domains shown)
VH: QVQLVQSGAEVKKPGASVKVSCKTSGYTFTEYTMHWVRQAPGQSLEWMGGIDPNQGNTHYNQKFQGRVTITVDKSASTAYMELSSLRSEDTAVYYCARIYYFGRLYFDFWGAGTLVTVSS
VL: DIQMTQSPSSLSASVGDRVTITCQASEDIYNRLAWYQQKPGKVPKLLISGATSLETGVPSRFSGSGSGKDYTFTISSLQPEDIATYYCQQYWSSPLTFGGGTKVEIKR
B8: XENP35102 having H2.9_L1 (antibody, V domains shown)
VH: EVQLVQSGAEVKKPGESLRISCKTSGYTFTEYTMHWVRQMPGKSLEWMGGIDPNNANTHYNQKFQGHVTISVDKSISTAYLQWSSLKASDTAMYYCARIYYFGRLYFDFWGAGTLVTVSS
VL: DIQMTQSPSSLSASVGDRVTITCQASEDIYNRLAWYQQKPGKVPKLLISGATSLETGVPSRFSGSGSGKDYTFTISSLQPEDIATYYCQQYWSSPLTFGGGTKVEIKR
B9: XENP35047 H2_L1.4 (antibody, V domains shown)
VH: EVQLVQSGAEVKKPGESLRISCKTSGYTFTEYTMHWVRQMPGKSLEWMGGIDPNNGNTHYNQKFQGHVTISVDKSISTAYLQWSSLKASDTAMYYCARIYYFGRLYFDFWGAGTLVTVSS
VL: DIQMTQSPSSLSASVGDRVTITCQASEDVYNRLAWYQQKPGKVPKLLISGATSLETGVPSRFSGSGSGKDYTFTISSLQPEDIATYYCQQYWSSPLTFGGGTKVEIKR
B10: XENP35064 H2_L1.21 (antibody, V domains shown)
VH: EVQLVQSGAEVKKPGESLRISCKTSGYTFTEYTMHWVRQMPGKSLEWMGGIDPNNGNTHYNQKFQGHVTISVDKSISTAYLQWSSLKASDTAMYYCARIYYFGRLYFDFWGAGTLVTVSS
VL: DIQMTQSPSSLSASVGDRVTITCQASEDIYNRLAWYQQKPGKVPKLLISGATNLETGVPSRFSGSGSGKDYTFTISSLQPEDIATYYCQQYWSSPLTFGGGTKVEIKR
B11: XENP35061 H2_L1.18 (antibody, V domains shown)
VH: EVQLVQSGAEVKKPGESLRISCKTSGYTFTEYTMHWVRQMPGKSLEWMGGIDPNNGNTHYNQKFQGHVTISVDKSISTAYLQWSSLKASDTAMYYCARIYYFGRLYFDFWGAGTLVTVSS
VL: DIQMTQSPSSLSASVGDRVTITCQASEDIYNRLAWYQQKPGKVPKLLISGTTSLETGVPSRFSGSGSGKDYTFTISSLQPEDIATYYCQQYWSSPLTFGGGTKVEIKR
B12: XENP35097 H2.4_L1 (antibody, V domains shown)
VH: EVQLVQSGAEVKKPGESLRISCKTSGYTFTEYTMHWVRQMPGKSLEWMGGIDGNNGNTHYNQKFQGHVTISVDKSISTAYLQWSSLKASDTAMYYCARIYYFGRLYFDFWGAGTLVTVSS
VL: DIQMTQSPSSLSASVGDRVTITCQASEDIYNRLAWYQQKPGKVPKLLISGATSLETGVPSRFSGSGSGKDYTFTISSLQPEDIATYYCQQYWSSPLTFGGGTKVEIKR
B13: XENP35050 H2_L1.7 (antibody, V domains shown)
VH: EVQLVQSGAEVKKPGESLRISCKTSGYTFTEYTMHWVRQMPGKSLEWMGGIDPNNGNTHYNQKFQGHVTISVDKSISTAYLQWSSLKASDTAMYYCARIYYFGRLYFDFWGAGTLVTVSS
VL: DIQMTQSPSSLSASVGDRVTITCQASEDIYSRLAWYQQKPGKVPKLLISGATSLETGVPSRFSGSGSGKDYTFTISSLQPEDIATYYCQQYWSSPLTFGGGTKVEIKR
B14: XENP35096 H2.3_L1 (antibody, V domains shown)
VH: EVQLVQSGAEVKKPGESLRISCKTSGYTFTEYTMHWVRQMPGKSLEWMGGIDSNNGNTHYNQKFQGHVTISVDKSISTAYLQWSSLKASDTAMYYCARIYYFGRLYFDFWGAGTLVTVSS
VL: DIQMTQSPSSLSASVGDRVTITCQASEDIYNRLAWYQQKPGKVPKLLISGATSLETGVPSRFSGSGSGKDYTFTISSLQPEDIATYYCQQYWSSPLTFGGGTKVEIKR
B15: XENP35062 H2_L1.19 (antibody, V domains shown)
VH: EVQLVQSGAEVKKPGESLRISCKTSGYTFTEYTMHWVRQMPGKSLEWMGGIDPNNGNTHYNQKFQGHVTISVDKSISTAYLQWSSLKASDTAMYYCARIYYFGRLYFDFWGAGTLVTVSS
VL: DIQMTQSPSSLSASVGDRVTITCQASEDIYNRLAWYQQKPGKVPKLLISGASSLETGVPSRFSGSGSGKDYTFTISSLQPEDIATYYCQQYWSSPLTFGGGTKVEIKR
B16: XENP35065 H2_L1.22 (antibody, V domains shown)
VH: EVQLVQSGAEVKKPGESLRISCKTSGYTFTEYTMHWVRQMPGKSLEWMGGIDPNNGNTHYNQKFQGHVTISVDKSISTAYLQWSSLKASDTAMYYCARIYYFGRLYFDFWGAGTLVTVSS
VL: DIQMTQSPSSLSASVGDRVTITCQASEDIYNRLAWYQQKPGKVPKLLISGATQLETGVPSRFSGSGSGKDYTFTISSLQPEDIATYYCQQYWSSPLTFGGGTKVEIKR
B17: XENP35087 H1.3_L1 (antibody, V domains shown)
VH: QVQLVQSGAEVKKPGASVKVSCKTSGYTFTEYTMHWVRQAPGQSLEWMGGIDSNNGNTHYNQKFQGRVTITVDKSASTAYMELSSLRSEDTAVYYCARIYYFGRLYFDFWGAGTLVTVSS
VL: DIQMTQSPSSLSASVGDRVTITCQASEDIYNRLAWYQQKPGKVPKLLISGATSLETGVPSRFSGSGSGKDYTFTISSLQPEDIATYYCQQYWSSPLTFGGGTKVEIKR
B18: XENP35101 having H2.8_L1 (antibody, V domains shown)
VH: EVQLVQSGAEVKKPGESLRISCKTSGYTFTEYTMHWVRQMPGKSLEWMGGIDPNNDNTHYNQKFQGHVTISVDKSISTAYLQWSSLKASDTAMYYCARIYYFGRLYFDFWGAGTLVTVSS
VL: DIQMTQSPSSLSASVGDRVTITCQASEDIYNRLAWYQQKPGKVPKLLISGATSLETGVPSRFSGSGSGKDYTFTISSLQPEDIATYYCQQYWSSPLTFGGGTKVEIKR
B19: XENP35092 H1.8_L1 (antibody, V domains shown)
VH: QVQLVQSGAEVKKPGASVKVSCKTSGYTFTEYTMHWVRQAPGQSLEWMGGIDPNNDNTHYNQKFQGRVTITVDKSASTAYMELSSLRSEDTAVYYCARIYYFGRLYFDFWGAGTLVTVSS
VL: DIQMTQSPSSLSASVGDRVTITCQASEDIYNRLAWYQQKPGKVPKLLISGATSLETGVPSRFSGSGSGKDYTFTISSLQPEDIATYYCQQYWSSPLTFGGGTKVEIKR

Tests used:
[1] = molecular target: T1, human CLDN6; assay: HEK293E cell binding; avid
[2] = molecular target: T2, human CLDN9; assay: HEK293E cell binding; avid

Binder | EC50 [1] | EC50 [2]
B1 | 1.18 µg/mL | 29.7 µg/mL
B2 | 1.29 µg/mL | 29.2 µg/mL
B3 | 0.978 µg/mL | 53.1 µg/mL
B4 | 1.14 µg/mL | 63.5 µg/mL
B5 | 4.34 µg/mL | –
B6 | 1.59 µg/mL | 31.8 µg/mL
B7 | 1.43 µg/mL | 31.4 µg/mL
B8 | 3.53 µg/mL | 1.43 µg/mL
B9 | 0.795 µg/mL | 17.6 µg/mL
B10 | 0.979 µg/mL | 14.1 µg/mL
B11 | 1.25 µg/mL | 56.3 µg/mL
B12 | 1.1 µg/mL | 72.9 µg/mL
B13 | 2.22 µg/mL | 99.3 µg/mL
B14 | 1.24 µg/mL | 110 µg/mL
B15 | 1.23 µg/mL | 86.8 µg/mL
B16 | 1.48 µg/mL | 69.1 µg/mL
B17 | 1.2 µg/mL | 31.8 µg/mL
B18 | 24.8 µg/mL | 1.06 µg/mL
B19 | 1.16 µg/mL | 25 µg/mL
